# Patent US20240270846A1 (published 2024)
# Biological target: T1, CD3 epsilon homodimer protein (UniProt P07766 23-126)
# T1 construct: also called CD3 (CD3 epsilon)
# Assay: SPR Biacore T200, antibody over immobilised CD3e homodimer;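 further: CD3 epsilon homodimer amine-coupled on a CM4 chip, run at 25 °C in HBS-EP+, Z = bound amount of each single-residue H chain variant over that of the parent antibody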
# T1 sequence (P07766 23-126): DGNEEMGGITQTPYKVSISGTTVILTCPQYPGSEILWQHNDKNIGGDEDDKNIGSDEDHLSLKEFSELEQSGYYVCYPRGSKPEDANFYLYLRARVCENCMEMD
row,ratio of amounts bound (Z=Y/X vs CE115HA000),Binder
1,0.22,"CE115HA000 H35W one-arm antibody (antibody, human IgG1, kappa, L234A L235A, N297A, name in Kabat numbering, one-arm antibody) heavy: QVQLVESGGGVVQPGRSLRLSCAASGFTFSNAWMWWVRQAPGKGLEWVAQIKAKSNNYATYYAESVKGRFTISRDDSKNSLYLQMNSLKTEDTAVYYCRYVHYGAYYGVDAWGQGTTVTVSSASTKGPSVFPLAPSSKSTSGGTAALGCLVKDYFPEPVTVSWNSGALTSGVHTFPAVLQSSGLYSLSSVVTVPSSSLGTQTYICNVNHKPSNTKVDKKVEPKSCDKTHTCPPCPAPEAAGGPSVFLFPPKPKDTLMISRTPEVTCVVVDVSHEDPEVKFNWYVDGVEVHNAKTKPREEQYASTYRVVSVLTVLHQDWLNGKEYKCKVSNKALPAPIEKTISKAKGQPREPQVYTLPPSRCELTKNQVSLSCAVKGFYPSDIAVEWESNGQPENNYKTTPPVLDSDGSFFLVSKLTVDKSRWQQGNVFSCSVMHEALHNHYTQKSLSLSPDYKDDDDK EPKSSDKTHTCPPCPAPELLGGPSVFLFPPKPKDTLMISRTPEVTCVVVDVSHEDPEVKFNWYVDGVEVHNAKTKPREEQYNSTYRVVSVLTVLHQDWLNGKEYKCKVSNKALPAPIEKTISKAKGQPREPQVCTLPPSRDELTKNQVSLWCLVKGFYPSDIAVEWESNGQPENNYKTTPPVLDSDGSFFLYSKLTVDKSRWQQGNVFSCSVMHEALHNRYTQKSLSLSP light: DIVMTQSPLSLPVTPGEPASISCRSSQSLVHSNRNTYLHWYQQKPGQAPRLLIYKVSNRFSGVPDRFSGSGSGTDFTLKISRVEAEDVGVYYCGQGTQVPYTFGQGTKLEIKRTVAAPSVFIFPPSDEQLKSGTASVVCLLNNFYPREAKVQWKVDNALQSGNSQESVTEQDSKDSTYSLSSTLTLSKADYEKHKVYACEVTHQGLSSPVTKSFNRGEC"
2,0.9,"CE115HA000 K43E one-arm antibody (antibody, human IgG1, kappa, L234A L235A, N297A, name in Kabat numbering, one-arm antibody) heavy: QVQLVESGGGVVQPGRSLRLSCAASGFTFSNAWMHWVRQAPGEGLEWVAQIKAKSNNYATYYAESVKGRFTISRDDSKNSLYLQMNSLKTEDTAVYYCRYVHYGAYYGVDAWGQGTTVTVSSASTKGPSVFPLAPSSKSTSGGTAALGCLVKDYFPEPVTVSWNSGALTSGVHTFPAVLQSSGLYSLSSVVTVPSSSLGTQTYICNVNHKPSNTKVDKKVEPKSCDKTHTCPPCPAPEAAGGPSVFLFPPKPKDTLMISRTPEVTCVVVDVSHEDPEVKFNWYVDGVEVHNAKTKPREEQYASTYRVVSVLTVLHQDWLNGKEYKCKVSNKALPAPIEKTISKAKGQPREPQVYTLPPSRCELTKNQVSLSCAVKGFYPSDIAVEWESNGQPENNYKTTPPVLDSDGSFFLVSKLTVDKSRWQQGNVFSCSVMHEALHNHYTQKSLSLSPDYKDDDDK EPKSSDKTHTCPPCPAPELLGGPSVFLFPPKPKDTLMISRTPEVTCVVVDVSHEDPEVKFNWYVDGVEVHNAKTKPREEQYNSTYRVVSVLTVLHQDWLNGKEYKCKVSNKALPAPIEKTISKAKGQPREPQVCTLPPSRDELTKNQVSLWCLVKGFYPSDIAVEWESNGQPENNYKTTPPVLDSDGSFFLYSKLTVDKSRWQQGNVFSCSVMHEALHNRYTQKSLSLSP light: DIVMTQSPLSLPVTPGEPASISCRSSQSLVHSNRNTYLHWYQQKPGQAPRLLIYKVSNRFSGVPDRFSGSGSGTDFTLKISRVEAEDVGVYYCGQGTQVPYTFGQGTKLEIKRTVAAPSVFIFPPSDEQLKSGTASVVCLLNNFYPREAKVQWKVDNALQSGNSQESVTEQDSKDSTYSLSSTLTLSKADYEKHKVYACEVTHQGLSSPVTKSFNRGEC"
3,0.55,"CE115HA000 I51E one-arm antibody (antibody, human IgG1, kappa, L234A L235A, N297A, name in Kabat numbering, one-arm antibody) heavy: QVQLVESGGGVVQPGRSLRLSCAASGFTFSNAWMHWVRQAPGKGLEWVAQEKAKSNNYATYYAESVKGRFTISRDDSKNSLYLQMNSLKTEDTAVYYCRYVHYGAYYGVDAWGQGTTVTVSSASTKGPSVFPLAPSSKSTSGGTAALGCLVKDYFPEPVTVSWNSGALTSGVHTFPAVLQSSGLYSLSSVVTVPSSSLGTQTYICNVNHKPSNTKVDKKVEPKSCDKTHTCPPCPAPEAAGGPSVFLFPPKPKDTLMISRTPEVTCVVVDVSHEDPEVKFNWYVDGVEVHNAKTKPREEQYASTYRVVSVLTVLHQDWLNGKEYKCKVSNKALPAPIEKTISKAKGQPREPQVYTLPPSRCELTKNQVSLSCAVKGFYPSDIAVEWESNGQPENNYKTTPPVLDSDGSFFLVSKLTVDKSRWQQGNVFSCSVMHEALHNHYTQKSLSLSPDYKDDDDK EPKSSDKTHTCPPCPAPELLGGPSVFLFPPKPKDTLMISRTPEVTCVVVDVSHEDPEVKFNWYVDGVEVHNAKTKPREEQYNSTYRVVSVLTVLHQDWLNGKEYKCKVSNKALPAPIEKTISKAKGQPREPQVCTLPPSRDELTKNQVSLWCLVKGFYPSDIAVEWESNGQPENNYKTTPPVLDSDGSFFLYSKLTVDKSRWQQGNVFSCSVMHEALHNRYTQKSLSLSP light: DIVMTQSPLSLPVTPGEPASISCRSSQSLVHSNRNTYLHWYQQKPGQAPRLLIYKVSNRFSGVPDRFSGSGSGTDFTLKISRVEAEDVGVYYCGQGTQVPYTFGQGTKLEIKRTVAAPSVFIFPPSDEQLKSGTASVVCLLNNFYPREAKVQWKVDNALQSGNSQESVTEQDSKDSTYSLSSTLTLSKADYEKHKVYACEVTHQGLSSPVTKSFNRGEC"
4,0.16,"CE115HA000 H35Y one-arm antibody (antibody, human IgG1, kappa, L234A L235A, N297A, name in Kabat numbering, one-arm antibody) heavy: QVQLVESGGGVVQPGRSLRLSCAASGFTFSNAWMYWVRQAPGKGLEWVAQIKAKSNNYATYYAESVKGRFTISRDDSKNSLYLQMNSLKTEDTAVYYCRYVHYGAYYGVDAWGQGTTVTVSSASTKGPSVFPLAPSSKSTSGGTAALGCLVKDYFPEPVTVSWNSGALTSGVHTFPAVLQSSGLYSLSSVVTVPSSSLGTQTYICNVNHKPSNTKVDKKVEPKSCDKTHTCPPCPAPEAAGGPSVFLFPPKPKDTLMISRTPEVTCVVVDVSHEDPEVKFNWYVDGVEVHNAKTKPREEQYASTYRVVSVLTVLHQDWLNGKEYKCKVSNKALPAPIEKTISKAKGQPREPQVYTLPPSRCELTKNQVSLSCAVKGFYPSDIAVEWESNGQPENNYKTTPPVLDSDGSFFLVSKLTVDKSRWQQGNVFSCSVMHEALHNHYTQKSLSLSPDYKDDDDK EPKSSDKTHTCPPCPAPELLGGPSVFLFPPKPKDTLMISRTPEVTCVVVDVSHEDPEVKFNWYVDGVEVHNAKTKPREEQYNSTYRVVSVLTVLHQDWLNGKEYKCKVSNKALPAPIEKTISKAKGQPREPQVCTLPPSRDELTKNQVSLWCLVKGFYPSDIAVEWESNGQPENNYKTTPPVLDSDGSFFLYSKLTVDKSRWQQGNVFSCSVMHEALHNRYTQKSLSLSP light: DIVMTQSPLSLPVTPGEPASISCRSSQSLVHSNRNTYLHWYQQKPGQAPRLLIYKVSNRFSGVPDRFSGSGSGTDFTLKISRVEAEDVGVYYCGQGTQVPYTFGQGTKLEIKRTVAAPSVFIFPPSDEQLKSGTASVVCLLNNFYPREAKVQWKVDNALQSGNSQESVTEQDSKDSTYSLSSTLTLSKADYEKHKVYACEVTHQGLSSPVTKSFNRGEC"
5,0.29,"CE115HA000 I51D one-arm antibody (antibody, human IgG1, kappa, L234A L235A, N297A, name in Kabat numbering, one-arm antibody) heavy: QVQLVESGGGVVQPGRSLRLSCAASGFTFSNAWMHWVRQAPGKGLEWVAQDKAKSNNYATYYAESVKGRFTISRDDSKNSLYLQMNSLKTEDTAVYYCRYVHYGAYYGVDAWGQGTTVTVSSASTKGPSVFPLAPSSKSTSGGTAALGCLVKDYFPEPVTVSWNSGALTSGVHTFPAVLQSSGLYSLSSVVTVPSSSLGTQTYICNVNHKPSNTKVDKKVEPKSCDKTHTCPPCPAPEAAGGPSVFLFPPKPKDTLMISRTPEVTCVVVDVSHEDPEVKFNWYVDGVEVHNAKTKPREEQYASTYRVVSVLTVLHQDWLNGKEYKCKVSNKALPAPIEKTISKAKGQPREPQVYTLPPSRCELTKNQVSLSCAVKGFYPSDIAVEWESNGQPENNYKTTPPVLDSDGSFFLVSKLTVDKSRWQQGNVFSCSVMHEALHNHYTQKSLSLSPDYKDDDDK EPKSSDKTHTCPPCPAPELLGGPSVFLFPPKPKDTLMISRTPEVTCVVVDVSHEDPEVKFNWYVDGVEVHNAKTKPREEQYNSTYRVVSVLTVLHQDWLNGKEYKCKVSNKALPAPIEKTISKAKGQPREPQVCTLPPSRDELTKNQVSLWCLVKGFYPSDIAVEWESNGQPENNYKTTPPVLDSDGSFFLYSKLTVDKSRWQQGNVFSCSVMHEALHNRYTQKSLSLSP light: DIVMTQSPLSLPVTPGEPASISCRSSQSLVHSNRNTYLHWYQQKPGQAPRLLIYKVSNRFSGVPDRFSGSGSGTDFTLKISRVEAEDVGVYYCGQGTQVPYTFGQGTKLEIKRTVAAPSVFIFPPSDEQLKSGTASVVCLLNNFYPREAKVQWKVDNALQSGNSQESVTEQDSKDSTYSLSSTLTLSKADYEKHKVYACEVTHQGLSSPVTKSFNRGEC"
6,0.99,"CE115HA000 K43Q one-arm antibody (antibody, human IgG1, kappa, L234A L235A, N297A, name in Kabat numbering, one-arm antibody) heavy: QVQLVESGGGVVQPGRSLRLSCAASGFTFSNAWMHWVRQAPGQGLEWVAQIKAKSNNYATYYAESVKGRFTISRDDSKNSLYLQMNSLKTEDTAVYYCRYVHYGAYYGVDAWGQGTTVTVSSASTKGPSVFPLAPSSKSTSGGTAALGCLVKDYFPEPVTVSWNSGALTSGVHTFPAVLQSSGLYSLSSVVTVPSSSLGTQTYICNVNHKPSNTKVDKKVEPKSCDKTHTCPPCPAPEAAGGPSVFLFPPKPKDTLMISRTPEVTCVVVDVSHEDPEVKFNWYVDGVEVHNAKTKPREEQYASTYRVVSVLTVLHQDWLNGKEYKCKVSNKALPAPIEKTISKAKGQPREPQVYTLPPSRCELTKNQVSLSCAVKGFYPSDIAVEWESNGQPENNYKTTPPVLDSDGSFFLVSKLTVDKSRWQQGNVFSCSVMHEALHNHYTQKSLSLSPDYKDDDDK EPKSSDKTHTCPPCPAPELLGGPSVFLFPPKPKDTLMISRTPEVTCVVVDVSHEDPEVKFNWYVDGVEVHNAKTKPREEQYNSTYRVVSVLTVLHQDWLNGKEYKCKVSNKALPAPIEKTISKAKGQPREPQVCTLPPSRDELTKNQVSLWCLVKGFYPSDIAVEWESNGQPENNYKTTPPVLDSDGSFFLYSKLTVDKSRWQQGNVFSCSVMHEALHNRYTQKSLSLSP light: DIVMTQSPLSLPVTPGEPASISCRSSQSLVHSNRNTYLHWYQQKPGQAPRLLIYKVSNRFSGVPDRFSGSGSGTDFTLKISRVEAEDVGVYYCGQGTQVPYTFGQGTKLEIKRTVAAPSVFIFPPSDEQLKSGTASVVCLLNNFYPREAKVQWKVDNALQSGNSQESVTEQDSKDSTYSLSSTLTLSKADYEKHKVYACEVTHQGLSSPVTKSFNRGEC"
